Results: patent US20240277803A1, “NME INHIBITORS AND METHODS OF USING NME INHIBITORS” (Minerva Biotechnologies Corporation, priority 2013, published 2024)
Like-named read-outs stand apart in the source and are kept apart here.

Key:
human stem cells = assay: human stem cell culture in NME1 dimers or hexamers (FIG. 17D-G); assay type: cell-based
Excerpt: (§1) By contrast, NME1 is roughly half the molecular weight of NME7 (˜17 kDa) and has only one NDPK domain. NME1 acts as a growth factor that promotes growth and inhibits differentiation only when it is a dimer. At higher concentrations, NME1 can form hexamers. […] Thus, NME1, which is expressed later in embryogenesis, has the ability to turn itself off, thus limiting self-replication, while NME7 cannot. Wild type (wt) NME1 exists primarily as a hexamer at measurable concentrations. Mutant NME1 proteins, such as S120G that form stable dimer populations have been isolated from cancers and thus are continuously activating the MUC1* receptor. We made recombinant NME1-wt, and the S120G mutant. By varying refolding protocols we were able to stabilize populations that were essentially 100% hexamer or 100% dimer. In addition we isolated populations of NME1-S120G that were a mixture of dimer, tetramer and hexamer. […] In nature, when the concentration of stem cells reaches critical mass and their secretions of NME1 reaches the concentration at which they form hexamers, differentiation is induced. FIG. 18 is a cartoon depicting the mechanism, supported by experiments described herein, by which NME7 and NME1 function to promote pluripotency wherein NME1 regulates itself.

Human stem cells (iPS) = assay: human iPS stem cell culture in NME7-AB or NM23-H1 dimers; assay type: cell-based; conditions: 8 nM in minimal media over MN-C3 surface
Procedure: Testing recombinant NME7 for ability to maintain pluripotency and inhibit differentiation. A soluble variant of NME7, NME7-AB, was generated and purified. Human stem cells (iPS cat #SC101a-1, System Biosciences) were grown per the manufacturer's directions in 4 ng/ml bFGF over a layer of mouse fibroblast feeder cells for four passages. These source stem cells were then plated into 6-well cell culture plates (Vita™, Thermo Fisher) that had been coated with 12.5 ug/well of a monoclonal anti-MUC1* antibody, MN-C3. Cells were plated at a density of 300,000 cells per well. The base media was Minimal Stem Cell Media consisting of: 400 ml DME/F12/GlutaMAX I (Invitrogen #10565-018), 100 ml Knockout Serum Replacement (KO-SR, Invitrogen #10828-028), 5 ml 100×MEM Non-essential Amino Acid Solution (Invitrogen#11140-050) and 0.9 ml (0.1 mM) β-mercaptoethanol (55 mM stock, Invitrogen #21985-023). The base media can be any media. In a preferred embodiment, the base media is free of other growth factors and cytokines. To the base media was added either 8 nM of NME7-AB or 8 nM NM23-H1 refolded and purified as stable dimers. Media was changed every 48 hours and due to accelerated growth had to be harvested and passaged at Day 3 post-plating. FIGS. 9 and 10 document the day by day comparison of growth in NM23-H1 dimers to growth in NME7 monomers. […] Cell counts at the first harvest verified that culture in NME7 produced 1.4-times more cells than culture in NM23-H1 dimers.

[1] = molecular target: T1, PSMGFR peptide of the MUC1* extracellular domain (Homo sapiens, UniProt P15941); assay: SPR and nanoparticle binding of NME1 multimers to PSMGFR peptide (FIG. 17); parameters: the PSMGFR peptide of the MUC1* extracellular domain is immobilized on the chip; conditions: for binding to MUC1* extracellular domain peptide (PSMGFR): SPR chip or gold nanoparticles
T1 sequence (P15941 1110-1154 limits assumed): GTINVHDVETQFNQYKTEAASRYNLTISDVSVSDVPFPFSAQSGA
Excerpt: MUC1* extra cellular domain peptide was immobilized onto gold nanoparticles.
as §1

[2] = molecular target: T2, MUC1* extra cellular domain peptide (Homo sapiens, UniProt P15941); assay: gold nanoparticle binding assay, NME7 and MUC1* peptide (FIG. 7); conditions: protein added free in solution
T2 sequence (P15941 with tags, fused parts or gaps): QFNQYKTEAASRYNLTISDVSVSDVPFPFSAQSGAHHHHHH
Procedure: Gold nanoparticles of a diameter of 30.0 nm were coated with an NTA-SAM surface according to Thompson et al. (ACS Appl. Mater. Interfaces, 2011, 3 (8), pp 2979-2987). The NTA-SAM coated gold nanoparticles were then activated with an equal volume of 180 uM NiSO4, incubated for 10 min at room temperature, washed, and resuspended in a 10 mM phosphate buffer ([…]). The gold nanoparticles were then loaded with PSMGER N-10 peptide ([…] (SEQ ID NO:155)) at 0.5 uM final concentration, and incubated at room temperature for 10 min. Recombinant NME7-AB protein expressed and purified from E. coli was added free in solution at the concentrations indicated. When particle-immobilized proteins bind to each other, or simultaneously bind to two different peptides on two different particles, the particle solution color changes from pink/red to purple/blue. If the protein added free in solution causes particle aggregation, it is strong evidence that the free protein dimerizes the cognate peptide, since binding to a single peptide would not induce two or more particles to be brought into close proximity to each other.
The NME7-AB is added free in solution at the concentrations indicated. Solution color change from pink to purple/blue from particle aggregation indicates binding between the MUC1* peptide on the particles and NME7 free in solution. […] Particle aggregation, indicating NME7 can simultaneously bind to two peptides is observed. […] The T47D breast cancer cell line Lysate, which contains native NME7 turns noticeably purple also.

[3] = molecular target: T1, PSMGFR peptide of the MUC1* extracellular domain; assay: ELISA of NME6 binding to PSMGFR peptide (FIG. 19)
Excerpt: NME6 is also expressed in very early embryogenesis. NME6 is reportedly a dimer in some species such as sea sponge. NME6 must be expressed at high enough levels that it can form dimers before it can activate growth and inhibit differentiation. Thus, it is expressed at a later stage than NME7. […] We made recombinant NME6 as the wild type protein, or with a single point mutation S139G, which mimics the S120G mutation that causes NME1 to prefer dimer formation. In addition, another NME6 variant was made so that in this sensitive area, the human NME6 would look like sea sponge NME6, which reportedly exists as a dimer. These mutations are S139A plus V142D and V143A. […] In part A, NME6-wt is purified as the monomer or as a high molecular weight multimer. […] In part B, the NME6 multimers are dissociated by dilution in SDS. […] The gels of FIG. 19 D-H show expression of NME6-wt (D), NME6 with the S139G mutation that corresponds to the mutation S120G which in human NME1 increases dimer formation (E), NME6 bearing three mutations that make the human form mimic the sea sponge form that is reported to be a dimer (F), and a single chain protein linking two NME6 proteins (G,H). […] Thus an effective anti-cancer agent would be an antibody, small molecule or other agent that disrupts binding of NME6 dimers to MUC1* extra cellular domain peptide. […]

Substance	pluripotent stem cell growth / differentiation (human stem cells)	stem cell growth, pluripotency and differentiation (Human stem cells (iPS))	binding to MUC1* extracellular domain peptide (PSMGFR) ([1]; listed as NM23 dimers)	binding to MUC1* extracellular domain peptide (PSMGFR) ([1]; listed as dimer form of NME1)	binding to N-10 version of the PSMGFR peptide ([1]; first 10 amino acids of PSMGFR omitted)	binding to MUC1* peptide on nanoparticles (color change pink to purple/blue) [2]	binding to PSMGFR peptide (ELISA) [3]	binding to PSMGFR peptide (ELISA) ([3]; listed as NME6 monomer)
NME1 dimers: recombinant NME1 (NM23-H1) S120G mutant refolded and purified as stable dimers	promote pluripotent stem cell growth	no differentiation	bind to the cognate receptor MUC1*	binds to the MUC1* extracellular domain	bind to the N-10 version of the PSMGFR peptide	began to change almost immediately to purple		
NME1 hexamers: recombinant NME1 in hexamer form	induce differentiation							
NME6: recombinant human NME6 wild type protein							binds to the PSMGFR peptide	preferential binding
